Read-outs that look alike come from different tables or passages of the source. No end group written: not given here.

Broadly, the EC50 is the concentration at which the effect is half-maximal.

In one experiment the target is T1, wildtype PTH receptor (Rattus norvegicus, UniProt P25961).
T1 sequence (P25961 27-591): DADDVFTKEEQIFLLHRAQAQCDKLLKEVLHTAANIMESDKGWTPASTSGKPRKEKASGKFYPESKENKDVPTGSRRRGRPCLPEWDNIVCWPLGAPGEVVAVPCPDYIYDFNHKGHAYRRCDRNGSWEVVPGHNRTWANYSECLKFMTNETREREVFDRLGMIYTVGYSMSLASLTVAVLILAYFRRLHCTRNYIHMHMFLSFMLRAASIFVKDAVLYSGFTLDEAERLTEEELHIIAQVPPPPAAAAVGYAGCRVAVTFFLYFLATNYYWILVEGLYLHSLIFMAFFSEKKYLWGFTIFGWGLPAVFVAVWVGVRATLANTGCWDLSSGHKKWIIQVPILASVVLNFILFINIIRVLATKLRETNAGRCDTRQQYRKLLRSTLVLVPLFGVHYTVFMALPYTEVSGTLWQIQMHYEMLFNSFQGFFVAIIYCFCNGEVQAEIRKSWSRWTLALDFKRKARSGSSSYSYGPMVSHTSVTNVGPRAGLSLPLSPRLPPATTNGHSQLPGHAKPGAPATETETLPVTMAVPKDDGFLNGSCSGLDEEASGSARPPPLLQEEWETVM
As to conditions: read-out: EC50, cAMP formation, cited from earlier work. Background: cAMP levels reflect the balance of adenylyl cyclase and phosphodiesterase activity.

The target in the next experiment is T2, truncated PTH receptor (Rattus norvegicus, UniProt P25961).
T2 sequence (P25961 with tags, fused parts or gaps): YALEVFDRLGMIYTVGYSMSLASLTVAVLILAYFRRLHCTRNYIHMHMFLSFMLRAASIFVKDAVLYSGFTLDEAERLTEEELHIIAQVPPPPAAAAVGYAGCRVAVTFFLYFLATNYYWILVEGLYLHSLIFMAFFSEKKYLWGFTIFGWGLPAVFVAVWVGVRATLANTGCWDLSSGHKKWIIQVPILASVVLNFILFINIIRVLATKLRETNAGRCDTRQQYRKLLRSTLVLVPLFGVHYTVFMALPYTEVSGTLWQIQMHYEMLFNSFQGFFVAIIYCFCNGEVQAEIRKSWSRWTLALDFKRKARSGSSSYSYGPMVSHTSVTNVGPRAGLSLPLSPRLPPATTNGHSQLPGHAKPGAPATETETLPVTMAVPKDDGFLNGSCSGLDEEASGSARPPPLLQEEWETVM
To be noted: cited from earlier work.

A further experiment concerns the target T3, human PTH-1 receptor (Homo sapiens, UniProt Q03431).
T3 sequence (Q03431 27-593): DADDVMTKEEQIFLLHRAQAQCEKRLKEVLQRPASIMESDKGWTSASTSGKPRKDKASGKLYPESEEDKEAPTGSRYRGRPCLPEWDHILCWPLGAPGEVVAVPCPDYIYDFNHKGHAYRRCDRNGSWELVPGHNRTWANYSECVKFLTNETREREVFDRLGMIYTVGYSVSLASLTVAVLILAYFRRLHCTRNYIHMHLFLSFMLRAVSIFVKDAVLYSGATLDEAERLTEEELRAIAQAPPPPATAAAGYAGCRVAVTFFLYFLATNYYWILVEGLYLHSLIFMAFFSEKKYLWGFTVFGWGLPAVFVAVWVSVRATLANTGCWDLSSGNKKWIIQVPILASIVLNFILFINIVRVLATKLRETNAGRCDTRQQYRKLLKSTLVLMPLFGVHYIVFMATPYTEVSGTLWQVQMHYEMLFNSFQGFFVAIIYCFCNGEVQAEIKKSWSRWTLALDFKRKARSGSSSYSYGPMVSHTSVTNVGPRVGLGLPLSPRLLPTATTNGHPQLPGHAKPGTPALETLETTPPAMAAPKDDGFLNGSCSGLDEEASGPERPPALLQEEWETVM
In words: cAMP accumulation in COS cells expressing the human PTH-1 receptor. Type of experiment: cell-based. To be noted: for cAMP accumulation as compared to basal levels in un-stimulated cells: 60 min at 21° C. Here is the method:
Intracellular cAMP accumulation is measured as described previously (Abou-Samra et al., J. Biol. Chem. 262:1129, 1986). Cells grown in 24-well plates are rinsed with culture medium containing 0.1% BSA and 2 mM IBMX. The cells are then incubated with an S-(L)n-B compound or derivatives thereof for 60 min. at 21° C. The supernatant is removed and the cells immediately frozen by placing the whole plate in dry ice powder. Intracellular cAMP is extracted by thawing the cells in 1 ml of 50 mM HCl and analyzed by a specific radioimmunoassay using an anti-cAMP antibody (e.g., Sigma, St. Louis, Mo.). A cAMP analog (2′-O-monosuccinyl-adenosine 3′:5′-cyclic monophosphate tyrosyl methyl ester, obtained from Sigma) which is used a tracer for cAMP is iodinated by the chloramine T method. Free iodine is removed by adsorbing the iodinated cAMP analog onto a C18Sep-pak cartridge (Waters, Milford, Mass.). After washing with dH20, the iodinated cAMP analog is eluted from the Sep-pak Cartridge with 40% acetonitrille (ACN) and 0.1% trifluoroacetic acid (TFA). The iodinated cAMP analog is lyophilized, reconstituted in 1 ml 0.1% TFA, and injected into a C18 reverse phase HPLC column (Waters). The column is equilibrated with 10% ACN in 0.1% TFA, and eluted with gradient of 10–30% ACN in 0.1% TFA. This allows separation of the mono-iodinated cAMP analog from the non-iodinated cAMP analog. The tracer is stable for up to 4 months when stored at −20° C. The standard used for the assay, adenosine 3′:5′-cyclic monophosphate, may be purchased from Sigma. Samples (1–10 µl of HCl extracts) or standards ([…]) are diluted in 50 Mm Na-acetate (pH 5.5), and acetylated with 10 μl of mixture of triethylamine and acetic anhydride (2:1 vol:vol). After acetylation, cAMP antiserum (100 μl) is added from a stock solution (1:4000) made in PBS (pH 7.4), 5 mM EDTA and 1% normal rabbit serum. The tracer is diluted in PBS (pH 7.4) with 0.1% BSA, and added (20,000 cpm/tube). The assay is incubated at 4° C. overnight. […] The supernatant is removed and the bound radioactivity is counted in a gamma-counter (Micromedic). […]
In order to screen for agonist activity, functional domain conjugate peptides of the invention were utilized in in vitro assays designed to measure cellular response via cAMP accumulation. Intracellular cAMP accumulation is measured as described previously (Abou-Samra et al., J. Biol. Chem. 262:1129, 1986).
Cells grown in 24-well plates are rinsed with culture medium containing 0.1% BSA and 2 mM IBMX. […] Intracellular cAMP is extracted by thawing the cells in 1 ml of 50 mM HCl and analyzed by a specific radioimmunoassay using an anti-cAMP antibody (e.g., Sigma, St. Louis, Mo.). […]

“PTH(1–14) (AVSEIQLMHNLGKH; not fully specified (C-terminus); listed as Homo sapiens) [N-terminal fragment (1–14) of parathyroid hormone]”: the EC50 with wildtype PTH receptor (intact receptor) was roughly 100 µM; with truncated PTH receptor (read-out: EC50, cAMP formation) it was roughly 100 µM.
As to “PTH (1–5)-(Gly)9-PTH(15–31) (AVSEIGGGGGGGGGLNSMERVEWLRKKLQDV; modified PTH sequence) [PG9, S-(L)n-B peptide: PTH(1–5), linker (Gly)9, PTH(15–31)]”, in the experiment with human PTH-1 receptor, the “cAMP accumulation as compared to basal levels in un-stimulated cells” value is reported as “increased levels of cAMP accumulation”.
Still for that read-out and setting: with “PTH(1–9)-(Gly)5-PTH(15–31) (AVSEIQLMHGGGGGLNSMERVEWLRKKLQDV; modified PTH sequence) [PG5, S-(L)n-B peptide: PTH(1–9), linker (Gly)5, PTH(15–31)]” the entry was “increased levels of cAMP accumulation”.
As to PTH(1–34), the EC50 with wildtype PTH receptor (wildtype receptor) is roughly 0.003 µM. Further, the “potency, cAMP formation” value with truncated PTH receptor is reported as “severly diminished”.
For the substance [Ala^1] PTH(1–14), the “bioactivity over the background level of bioactivity of the native PTH(1–14) peptide” value at human PTH-1 receptor (serine at position one replaced by alanine) was “measurable increase in bioactivity”.
As to “PTH (1–9)-(Gly)7-PTH(17–31) (AVSEIQLMHGGGGGGGSMERVEWLRKKLQDV; modified PTH sequence) [PG7, S-(L)n-B peptide: PTH(1–9), linker (Gly)7, PTH(17–31)]”, the “cAMP accumulation as compared to basal levels in un-stimulated cells” value with human PTH-1 receptor was “increased levels of cAMP accumulation”.

The values above are taken from patent US7057012B1, “PTH functional domain conjugate peptides, derivatives thereof and novel tethered ligand-receptor molecules” (The General Hospital Corporation, priority 1998, dated 2006).
